# T1: Mlh1-Mlh3 (Saccharomyces cerevisiae, UniProt P38920;Q12083 1-769;1-715)
# T1 sequence 1: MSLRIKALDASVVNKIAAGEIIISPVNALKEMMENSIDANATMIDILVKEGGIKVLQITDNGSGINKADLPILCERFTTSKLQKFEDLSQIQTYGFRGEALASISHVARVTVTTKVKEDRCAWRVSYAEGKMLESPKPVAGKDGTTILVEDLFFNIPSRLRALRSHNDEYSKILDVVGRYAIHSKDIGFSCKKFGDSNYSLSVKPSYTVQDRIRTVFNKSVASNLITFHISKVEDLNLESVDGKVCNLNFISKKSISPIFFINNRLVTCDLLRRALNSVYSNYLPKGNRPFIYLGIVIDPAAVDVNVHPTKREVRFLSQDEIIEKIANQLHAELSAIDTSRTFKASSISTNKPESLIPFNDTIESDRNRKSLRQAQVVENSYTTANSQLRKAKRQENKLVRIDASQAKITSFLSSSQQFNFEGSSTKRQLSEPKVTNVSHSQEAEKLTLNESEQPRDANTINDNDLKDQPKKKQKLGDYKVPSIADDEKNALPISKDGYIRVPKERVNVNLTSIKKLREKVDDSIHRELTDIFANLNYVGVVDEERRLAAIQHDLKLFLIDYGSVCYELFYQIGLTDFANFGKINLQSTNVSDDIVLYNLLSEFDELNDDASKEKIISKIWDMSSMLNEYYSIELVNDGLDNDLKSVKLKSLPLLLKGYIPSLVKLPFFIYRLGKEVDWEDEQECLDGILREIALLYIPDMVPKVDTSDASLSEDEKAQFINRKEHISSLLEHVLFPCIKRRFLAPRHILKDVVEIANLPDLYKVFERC
# T1 sequence 2: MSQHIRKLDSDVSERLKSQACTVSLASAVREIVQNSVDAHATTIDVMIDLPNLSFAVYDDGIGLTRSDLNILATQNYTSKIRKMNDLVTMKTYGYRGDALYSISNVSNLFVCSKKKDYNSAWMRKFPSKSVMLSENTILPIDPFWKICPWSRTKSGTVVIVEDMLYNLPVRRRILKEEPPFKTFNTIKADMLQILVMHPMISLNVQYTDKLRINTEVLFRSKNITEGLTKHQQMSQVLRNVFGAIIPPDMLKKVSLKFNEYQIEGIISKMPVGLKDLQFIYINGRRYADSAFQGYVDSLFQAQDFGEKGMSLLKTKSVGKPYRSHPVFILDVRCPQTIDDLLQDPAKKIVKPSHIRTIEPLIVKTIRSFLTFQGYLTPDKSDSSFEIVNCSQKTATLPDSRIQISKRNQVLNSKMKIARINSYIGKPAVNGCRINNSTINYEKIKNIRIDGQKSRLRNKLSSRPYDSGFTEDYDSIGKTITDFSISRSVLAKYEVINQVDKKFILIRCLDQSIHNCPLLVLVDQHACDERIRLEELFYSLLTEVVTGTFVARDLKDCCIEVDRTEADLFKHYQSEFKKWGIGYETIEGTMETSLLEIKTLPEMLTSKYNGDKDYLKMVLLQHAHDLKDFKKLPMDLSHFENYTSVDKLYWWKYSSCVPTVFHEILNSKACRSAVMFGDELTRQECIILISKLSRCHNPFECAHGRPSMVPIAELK
# B1: +8 loop oligonucleotide (AO3142/AO3143) (dsDNA)
# DNA 1: GGGTCAACGTGGGCAAAGATGTCCTAGCAAGTCAGAATTCGGTAGCGTG
# DNA 2: CACGCTACCGAATTCTGACTTGCTAGGTGTGTGTGACATCTTTGCCCACGTTGACCC
# B2: Holliday junction X26 (structured_DNA)
# DNA 1: GCGCTACCAGTGATCACCAATGGATTGCTAGGACATCTTTGCCCACCTGCAGGTTCACCC
# DNA 2: GGGTGAACCTGCAGGTGGGCAAAGATGTCCTAGCAATCCATTGTCTATGACGTCAAGCTC
# DNA 3: GAGCTTGACGTCATAGACAATGGATTGCTAGGACATCTTTGCCGTCTTGTCAATATCGGC
# DNA 4: GCCGATATTGACAAGACGGCAAAGATGTCCTAGCAATCCATTGGTGATCACTGGTAGCGC
# What was measured:
# Mlh1-Mlh3 [1] = target: T1, Mlh1-Mlh3; assay: competition; very strong competitor of plasmid nicking, 0-2000 nM oligo, 1 mM Mg2+; Filter binding: 20 mM Tris-HCl pH 7.5, 0.01 mM EDTA, 2 mM MgCl2, 40 ug/mL BSA, 0.1 mM DTT, 15 uM nucleotide DNA, 10 min at 30 C (20 or 150 mM KCl in Fig 4B; KCl not stated for Fig 4A); details: protein: recombinant; copies: 1;1; blunt
# Mlh1-Mlh3 [2] = target: T1, Mlh1-Mlh3; assay: competition; very strong competitor of plasmid nicking, 0-2000 nM, 1 mM Mg2+; Filter binding: 20 mM Tris-HCl pH 7.5, 0.01 mM EDTA, 2 mM MgCl2, 40 ug/mL BSA, 0.1 mM DTT, 15 uM nucleotide DNA, 10 min at 30 C (20 or 150 mM KCl in Fig 4B; KCl not stated for Fig 4A); details: protein: recombinant; copies: 1;1; 4-way junction with 26 bp mobile homologous core
binder,measurement,setting,value
B1,binding result,Mlh1-Mlh3 [1],binds
B2,binding result,Mlh1-Mlh3 [2],binds

# Reference: paper PMC5409509, “The mismatch repair and meiotic recombination endonuclease Mlh1-Mlh3 is activated by polymer formation and can cleave DNA substrates in trans”
